Data on one molecule can be found in patent US20180371095A1 (published 2018).

The target in this assay is T1, HEK293 cells transfected with recombinant human VSIG3-eGFP (human, UniProt Q5DX21 23-431).
T1 construct: whole, on cells; not shown: eGFP
T1 sequence (looked up): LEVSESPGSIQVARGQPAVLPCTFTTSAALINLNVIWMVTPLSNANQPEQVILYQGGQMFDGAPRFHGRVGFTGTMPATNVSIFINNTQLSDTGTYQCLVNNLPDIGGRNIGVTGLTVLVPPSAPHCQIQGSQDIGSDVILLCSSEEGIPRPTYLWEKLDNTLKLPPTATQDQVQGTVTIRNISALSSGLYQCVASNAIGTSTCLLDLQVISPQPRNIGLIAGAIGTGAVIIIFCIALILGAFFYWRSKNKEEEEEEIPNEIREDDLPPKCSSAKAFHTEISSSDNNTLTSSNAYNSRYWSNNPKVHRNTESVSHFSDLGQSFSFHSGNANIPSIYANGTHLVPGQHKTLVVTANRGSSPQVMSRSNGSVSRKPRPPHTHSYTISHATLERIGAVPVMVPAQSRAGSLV
Description: flow cytometry, anti-Fc APC detection. Background: A flow cytometer gives signals particle by particle.

B1: recombinant human Siglec-7 (rhSiglec-7)/Fc protein (Fc fusion, UniProt Q9Y286 19-357, looked up)
chain: QKSNRKDYSLTMQSSVTVQEGMCVHVRCSFSYPVDSQTDSDPVHGYWFRAGNDISWKAPVATNNPAWAVQEETRDRFHLLGDPQTKNCTLSIRDARMSDAGRYFFRMEKGNIKWNYKYDQLSVNVTALTHRPNILIPGTLESGCFQNLTCSVPWACEQGTPPMISWMGTSVSPLHPSTTRSSVLTLIPQPQHHGTSLTCQVTLPGAGVTTNRTIQLNVSYPPQNLTVTVFQGEGTASTALGNSSSLSVLEGQSLRLVCAVDSNPPARLSWTWRSLTLYPSQPSNPLVLELQVHLGDEGEFTCRAQNSLGSQHVSLNLSLQQEYTGKMRPVSGVLLGAVG
notes: also called Fc-tagged Siglec7 protein; human Siglec-7 Fc protein; not shown: human IgG Fc region
In the case of B1, the binding result was “no binding”.
